Test [1] addresses T1, full-length beta-Catenin (Uniprot ID P35222) (Homo sapiens (Human), UniProt P35222 2-781).
T1 construct: The assay protocols say only 'full-length'; No tag is stated, although the AlphaScreen kit is a Histidine (Nickel Chelate) kit; also called B-Catenin; bCat
T1 sequence: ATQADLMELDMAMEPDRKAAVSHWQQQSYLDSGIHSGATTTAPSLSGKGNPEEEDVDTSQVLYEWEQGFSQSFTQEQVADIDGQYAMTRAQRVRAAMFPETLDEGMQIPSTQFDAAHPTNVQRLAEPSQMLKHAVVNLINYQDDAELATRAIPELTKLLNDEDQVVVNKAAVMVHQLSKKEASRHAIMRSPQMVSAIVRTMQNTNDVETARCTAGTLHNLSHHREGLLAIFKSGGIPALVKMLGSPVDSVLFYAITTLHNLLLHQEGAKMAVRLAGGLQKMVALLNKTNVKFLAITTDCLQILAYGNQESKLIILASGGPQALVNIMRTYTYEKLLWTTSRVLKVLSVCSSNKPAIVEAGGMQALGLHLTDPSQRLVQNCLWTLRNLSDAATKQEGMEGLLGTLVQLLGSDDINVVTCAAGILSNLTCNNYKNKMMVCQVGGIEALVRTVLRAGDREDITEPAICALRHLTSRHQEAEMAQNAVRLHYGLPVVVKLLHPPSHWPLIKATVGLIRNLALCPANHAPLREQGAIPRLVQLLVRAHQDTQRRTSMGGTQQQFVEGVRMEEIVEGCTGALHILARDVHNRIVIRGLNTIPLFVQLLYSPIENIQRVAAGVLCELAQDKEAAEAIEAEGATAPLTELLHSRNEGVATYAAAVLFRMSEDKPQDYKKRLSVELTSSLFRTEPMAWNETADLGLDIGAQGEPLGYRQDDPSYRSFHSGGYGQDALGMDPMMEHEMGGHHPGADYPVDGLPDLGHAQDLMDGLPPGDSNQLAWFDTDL
The test is described as follows: AlphaScreen competition; peptide titrated against full-length beta-catenin + biotin-TCF4(10-53). How it is done:
Equal volume of the titrated peptide was added to the plate and incubated for 15 minutes at 20° C. Then 4 uL of donor and 4 uL acceptor beads at 10 ug/mL were added to the plate, for a 16 uL reaction pool and protected from light for 60 minutes at 20° C. prior to read. Reads were performed on a CLARIOstar plate reader (BMG Labtech) in duplicate, and data were fitted to a 1:1 binding model with hill slope using an in-house script. All provided concentrations are final concentrations.
(In general: In Alpha technology, singlet oxygen from a donor bead excites a nearby acceptor bead.)

Test [2] has as its target T2, full-length beta-Catenin (Uniprot ID P35222) (Homo sapiens (Human), UniProt P35222 2-781).
T2 construct: also called bCat; B-Catenin
T2 sequence: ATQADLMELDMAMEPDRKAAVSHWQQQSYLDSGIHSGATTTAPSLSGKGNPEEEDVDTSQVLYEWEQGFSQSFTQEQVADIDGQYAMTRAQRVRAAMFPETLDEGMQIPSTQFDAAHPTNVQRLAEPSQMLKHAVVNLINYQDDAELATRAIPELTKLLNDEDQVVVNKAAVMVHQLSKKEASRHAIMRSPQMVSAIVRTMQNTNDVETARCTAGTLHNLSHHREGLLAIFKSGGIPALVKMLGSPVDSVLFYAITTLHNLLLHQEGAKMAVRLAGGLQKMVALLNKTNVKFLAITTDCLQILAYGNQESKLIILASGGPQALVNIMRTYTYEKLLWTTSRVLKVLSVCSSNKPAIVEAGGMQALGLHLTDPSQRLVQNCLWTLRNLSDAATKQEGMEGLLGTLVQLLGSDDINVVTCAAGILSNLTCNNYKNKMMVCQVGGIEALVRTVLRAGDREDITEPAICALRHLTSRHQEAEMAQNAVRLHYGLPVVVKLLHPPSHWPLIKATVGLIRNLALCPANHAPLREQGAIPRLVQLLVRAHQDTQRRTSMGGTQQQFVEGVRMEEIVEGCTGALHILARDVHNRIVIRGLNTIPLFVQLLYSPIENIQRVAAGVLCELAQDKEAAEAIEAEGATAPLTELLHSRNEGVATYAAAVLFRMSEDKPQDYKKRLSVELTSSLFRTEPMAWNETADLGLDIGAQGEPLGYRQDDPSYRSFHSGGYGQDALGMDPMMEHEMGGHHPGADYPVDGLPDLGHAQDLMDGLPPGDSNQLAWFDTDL
The test is described as follows: fluorescence polarization competition; full-length beta-catenin, 5FAM-TCF4(10-53) probe as competitor. How it is done: The plate was incubated protected from light for 60 minutes at 20° C. prior to read. Reads were performed on a CLARIOstar plate reader (BMG Labtech) in duplicate, and data were fitted to a 1:1 binding model with hill slope using an in-house script. All provided concentrations are final concentrations.

This note sets out measurements from US20240116985A1 (published 2024).

Starred links: 1 amine or outer side, 2 acyl side, 3 side chain; linkers in the order of their positions; H or OH if unused. Positions of bridges follow the written chain, without caps; N, C: chain ends. Non-standard residues stand in square brackets, D forms with d. Primed or numbered codes have the meaning given here. PyrS2″ = (S)-3-amino-1-((pent-4-en-1-yloxy)carbonyl)pyrrolidine-3-carboxylic acid (stapling residue), C=CCCCOC(=O)N1CC[C@@](N[*:1])(C(=O)[*:2])C1; B5(16) = 2-amino-2-(pent-4-en-1-yl)hept-6-enoic acid = 2,2-bis(4-pentenyl)glycine (stitching residue), C=CCCCC(CCCC=C)(N[*:1])C(=O)[*:2]; B5(4) = 2,2-bis(4-pentenyl)glycine = 2-amino-2-(pent-4-en-1-yl)hept-6-enoic acid (stitching residue), C=CCCCC(CCCC=C)(N[*:1])C(=O)[*:2]; PyrS2 = (S)-3-amino-1-((pent-4-en-1-yloxy)carbonyl)pyrrolidine-3-carboxylic acid, C=CCCCOC(=O)N1CC[C@@](N[*:1])(C(=O)[*:2])C1; Bta = N[C@@H](Cc1csc2ccccc12)C(=O)O; Lys(iPr) = CC(C)NCCCC[C@H](N)C(=O)O; αAllylPro = C=CC[C@@]1(C(=O)O)CCCN1; S8 = C=CCCCCCC[C@](C)(N)C(=O)O

B1: I-352 (peptide)
peptide: Ac-[αAllylPro]DA[B5(16)]DAAAFV[S8]FWQ-NH2
modifications: staple 1-4, 4-11
notes: Stapled peptide composition; also called Ac-PL3-Asp-Ala-B5-Asp-Ala-Ala-Ala-Phe-Val-S8-Phe-Trp-Gln-NH2
Broadly, the EC50 is the concentration at which the effect is half-maximal. For the molecule B1, the EC50 in test [1] amounted to 377 nM.
Broadly, the IC50 is the concentration that inhibits the measured activity by half. Lower therefore signals inhibition by little substance. In turn, Ac-[αAllylPro]NF[B5(4)]DT[Lys(iPr)]AFL[PyrS2″]F[Bta]Q-NH2 (staple 1-4, 4-11) [I-1580] registered a half-maximal inhibitory concentration (IC50) in test [2] of 1430 nM.
Ac-[αAllylPro]NS[B5(4)]DT[Lys(iPr)]AFL[PyrS2″]F[Bta]Q-NH2 (staple 1-4, 4-11) [I-1583] yielded an IC50 in test [2] of 3420 nM.
The molecule Ac-[αAllylPro]N[Lys(iPr)][B5(4)]DT[Lys(iPr)]AFL[PyrS2]F[Bta]Q-NH2 (staple 1-4, 4-11) [I-1591] registered a concentration for half-maximal inhibition (IC50) in test [2] of 3110 nM.
In test [2], Ac-[αAllylPro]NL[B5(4)]DT[Lys(iPr)]AFL[PyrS2″]F[Bta]Q-NH2 (staple 1-4, 4-11) [I-1582] came in with an IC50 of 1220 nM.
For Ac-[αAllylPro]NQ[B5(4)]DT[Lys(iPr)]AFL[PyrS2″]F[Bta]Q-NH2 (staple 1-4, 4-11) [I-1584], the IC50 in test [2] worked out at 2440 nM.
In turn, Ac-[αAllylPro]NW[B5(4)]DT[Lys(iPr)]AFL[PyrS2″]F[Bta]Q-NH2 (staple 1-4, 4-11) [I-1581] showed an IC50 in test [2] of 10000 nM.
